In the supplement of paper PMC7125110:
± gives the standard error. For part of these data: Variants at the floor of the assay were thinned out.

B1: glmS ribozyme (parent)
chain: AUAAAAGCGCCAGAACUACAGAAAUGUAGUUGACGAGGAGGAGGUUUAUCGAAUUUUCGGCGGAUGCCUCCAAA

Columns and labels:
Conditions in all cases: with glucosamine-6-phosphate
glucosamine-6-phosphate [1] = variants of: B1; assay: kcat; higher = faster cleavage; RNA array
Procedure, shortened: (§1)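 Glucosamine-6-phosphate (40 μM to 10 mM) in HEPES/KCl/Mg(OAc)2 buffer was flowed over sequenced MiSeq chips, and tiles were imaged over ~14 h. Barcoded ribozyme variants there had been transcribed in situ by E. coli RNA polymerase and were tracked through a hybridised Cy3 probe at 37 °C. One- or two-exponential decay fits to per-tile medians, normalised to baseline and to non-cleaving reference variants, gave kobs. kcat and KM came from weighted Michaelis–Menten fits across concentrations.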

glucosamine-6-phosphate [2] = variants of: B1; assay: KM; higher = weaker cofactor use; RNA array
Procedure, shortened: as §1

glucosamine-6-phosphate [3] = variants of: B1; assay: self-cleavage kobs at 40 uM GlcN6P; higher = faster cleavage; RNA array
Procedure, shortened: as §1

glucosamine-6-phosphate [4] = variants of: B1; assay: self-cleavage kobs at 160 uM GlcN6P; higher = faster cleavage; RNA array
Procedure, shortened: as §1

glucosamine-6-phosphate [5] = variants of: B1; assay: self-cleavage kobs at 640 uM GlcN6P; higher = faster cleavage; RNA array
Procedure, shortened: as §1

glucosamine-6-phosphate [6] = variants of: B1; assay: self-cleavage kobs at 2500 uM GlcN6P; higher = faster cleavage; RNA array
Procedure, shortened: as §1

glucosamine-6-phosphate [7] = variants of: B1; assay: self-cleavage kobs at 10000 uM GlcN6P; higher = faster cleavage; RNA array
Procedure, shortened: as §1

Row | Variant | kcat (glucosamine-6-phosphate [1]) [s⁻¹] | KM (glucosamine-6-phosphate [2]) [µM] | self-cleavage kobs at 40 uM GlcN6P (glucosamine-6-phosphate [3]) [s⁻¹] | self-cleavage kobs at 160 uM GlcN6P (glucosamine-6-phosphate [4]) [s⁻¹] | self-cleavage kobs at 640 uM GlcN6P (glucosamine-6-phosphate [5]) [s⁻¹] | self-cleavage kobs at 2500 uM GlcN6P (glucosamine-6-phosphate [6]) [s⁻¹] | self-cleavage kobs at 10000 uM GlcN6P (glucosamine-6-phosphate [7]) [s⁻¹]
1 | G43U C68U | 0.00467 ± 0.00089 | 1190 ± 320 | 0.000181 ± 1.5e-05 | 0.000436 ± 4.8e-05 | 0.00188 ± 0.00022 | 0.00344 ± 0.00047 | 0.00404 ± 0.0004
2 | G37A A64G | 0.00317 ± 0.0014 |  | 6.01e-05 ± 1.3e-05 | 5.16e-05 ± 2.1e-05 | 0.000337 ± 6.8e-05 | 0.000977 ± 0.00019 | 0.002 ± 0.00025
3 | A64U U69C | 5.01e-05 ± 2.7e-06 | 1050 ± 310 |  |  |  |  | 4.48e-05 ± 1.3e-05
4 | C16G U69G | 4.98e-05 ± 9.6e-06 |  |  | 3.78e-05 ± 1.2e-05 | 5.32e-05 ± 1.1e-05 | 5.34e-05 ± 6.2e-06 | 
5 | C67U C70A | 1.69e-05 ± 4.5e-06 |  |  |  |  |  | 
6 | U30A G41A | 0.000441 ± 3.4e-05 | 6390 ± 730 |  |  | 3.92e-05 ± 1.2e-05 | 0.000127 ± 2.3e-05 | 0.000265 ± 5.7e-05
7 | A15U A39U | 0.00466 ± 0.00041 | 2280 ± 280 | 8.33e-05 ± 9.7e-06 | 0.000251 ± 5.5e-05 | 0.0011 ± 0.00013 | 0.00233 ± 0.00043 | 0.0038 ± 0.0004
8 | G29C C67A C71U | 0.0001 ± 1.5e-05 |  |  |  | 0.000116 ± 2.2e-05 | 7.49e-05 ± 1.9e-05 | 0.000106 ± 1.9e-05
9 | U31A U57G | 4.33e-05 ± 3.3e-06 | 2970 ± 780 |  |  |  |  | 3.33e-05 ± 1.1e-05
10 | A12U C67U C70G | 2.06e-05 ± 6.6e-06 |  |  |  |  |  | 
11 | U49G G66U | 6.16e-05 ± 2.8e-07 | 5640 ± 59 |  |  |  |  | 3.94e-05 ± 1.3e-05
12 | U46C G66A | 0.000975 ± 0.00019 | 799 ± 250 | 5.14e-05 ± 1e-05 |  | 0.000364 ± 9.2e-05 | 0.000662 ± 0.00023 | 0.00107 ± 0.00025
13 | C58A U65A | 1.58e-05 ± 1.9e-06 |  |  |  |  |  | 
14 | C58A U65C | 6.66e-05 ± 7.6e-06 | 5030 ± 1300 |  |  |  |  | 4.42e-05 ± 2.2e-05
15 | C16G C67U | 0.000669 ± 7.7e-05 | 736 ± 160 | 4.87e-05 ± 9.4e-06 | 0.000106 ± 1.5e-05 | 0.000318 ± 3.4e-05 | 0.000504 ± 6.2e-05 | 0.000642 ± 8.6e-05
16 | C11A A14U | 9.91e-05 ± 4.5e-06 | 947 ± 180 |  |  | 4.4e-05 ± 1e-05 | 6.89e-05 ± 9.1e-06 | 9.18e-05 ± 8.6e-06
17 | A6C U47G | 1.58e-05 ± 2.8e-06 |  |  |  |  |  | 
18 | C58U C61U | < 1e-05 |  | < 1e-05 |  | < 1e-05 |  | 
19 | G13U C61A | 1.33e-05 ± 2.2e-06 |  |  |  |  |  | 
20 | G51A C68G | 3.03e-05 ± 1.4e-05 |  |  |  |  |  | 
